According to paper doi:10.1101/2025.08.07.668011, “High-Speed AFM Reveals IDR-Mediated Structural Plasticity of EML4-ALK Modulated by ALK Inhibitors” (bioRxiv, 2025):
“And” between values parts separate entries of the source, which are not always exact repeats. Identical values can stand only once.

Target: the molecule itself
Experiment: high-speed atomic force microscopy (HS-AFM); purified protein (approximately 3 nM) deposited on mica for 10 min, rinsed, imaged in 1/10 diluted PBS in tapping mode; oligomeric state from total pixel density, number of globules and behaviour in time-lapse images; molecules counted as monomer, dimer or trimer in broad fields; formation and dissociation seen in real time (reversible)

B1: EML4-ALK variant-1 (v1, E13:A20) (natural protein, human, UniProt Q9HC35 1-496, looked up)
chain: MDGFAGSLDDSISAASTSDVQDRLSALESRVQQQEDEITVLKAALADVLRRLAISEDHVASVKKSVSSKGQPSPRAVIPMSCITNGSGANRKPSHTSAVSIAGKETLSSAAKSGTEKKKEKPQGQREKKEESHSNDQSPQIRASPSPQPSSQPLQIHRQTPESKNATPTKSIKRPSPAEKSHNSWENSDDSRNKLSKIPSTPKLIPKVTKTADKHKDVIINQEGEYIKMFMRGRPITMFIPSDVDNYDDIRTELPPEKLKLEWAYGYRGKDCRANVYLLPTGKIVYFIASVVVLFNYEERTQRHYLGHTDCVKCLAIHPDKIRIATGQIAGVDKDGRPLQPHVRVWDSVTLSTLQIIGLGTFERGVGCLDFSKADSGVHLCIIDDSNEHMLTVWDWQKKAKGAEIKTTNEVVLAVEFHPTDANTIITCGKSHIFFWTWSGNSLTRKQGIFGKYEKPKFVQCLAFLGNGDVLTGDSGGVMLIWSKTTVEPTPGKGPKVYRRKHQELQAMQMELQSPEYKLSKLRTSTIMTDYNPNYCFAGKTSSISDLKEVPRKNITLIRGLGHGAFGEVYEGQVSGMPNDPSPLQVAVKTLPEVCSEQDELDFLMEALIISKFNHQNIVRCIGVSLQSLPRFILLELMAGGDLKSFLRETRPRPSQPSSLAMLDLLHVARDIACGCQYLEENHFIHRDIAARNCLLTCPGPGRVAKIGDFGMARDIYRASYYRKGGCAMLPVKWMPPEAFMEGIFTSKTDTWSFGVLLWEIFSLGYMPYPSKSNQEVLEFVTSGGRMDPPKNCPGPVYRIMTQCWQHQPEDRPNFAIILERIEYCTQDPDVINTALPIEYGPLVEEEEKVPVRPKDPEGVPPLLVSQQAKREEERSPAAPPPLPTTSSGKAAKKPTAAEISVRVPRGPAVEGGHVNMAFSQSNPPSELHKVHGSRNKPTSLWNPTYGSWFTEKPTKKNNPIAKKEPHDRGNLGLEGSCTVPPNVATGRLPGASLLLEPSSLTANMKEVPLFRLRHFPCGNVNYGYQQQGLPLEAATAPGAGHYEDTILKSKNSMNQPGP
notes: EML4, N-terminal part up to exon 13 (E13:A20): CC/TD domain, basic region, part of the TAPE domain (HELP, WD repeats); ALK, from exon 20 (A20) to the C-terminus, residues 1058-1620, holds the tyrosine kinase domain; ENLYFQ probably stays; also called EML4-ALK v1; source: Expi293F, transfected, purified (anti-FLAG M2 gel, TEV protease and His-tag beads, Superdex 200 SEC); not shown: His tag …
In the case of B1, the ratio of dimers is reported as 15%, the ratio of trimers is reported as 9% and the “stoichiometry N” value is reported as 2 and 3.
